B1: Kremen protein 1 (Homo sapiens), Q96MU8 (parent)
chain: MAPPAARLALLSAAALTLAARPAPSPGLGPECFTANGADYRGTQNWTALQGGKPCLFWNETFQHPYNTLKYPNGEGGLGEHNYCRNPDGDVSPWCYVAEHEDGVYWKYCEIPACQMPGNLGCYKDHGNPPPLTGTSKTSNKLTIQTCISFCRSQRFKFAGMESGYACFCGNNPDYWKYGEAASTECNSVCFGDHTQPCGGDGRIILFDTLVGACGGNYSAMSSVVYSPDFPDTYATGRVCYWTIRVPGASHIHFSFPLFDIRDSADMVELLDGYTHRVLARFHGRSRPPLSFNVSLDFVILYFFSDRINQAQGFAVLYQAVKEELPQERPAVNQTVAEVITEQANLSVSAARSSKVLYVITTSPSHPPQTVPGSNSWAPPMGAGSHRVEGWTVYGLATLLILTVTAIVAKILLHVTFKSHRVPASGDLRDCHQPGTSGEIWSIFYKPSTSISIFKKKLKGQSQQDDRNPLVSD
B2: Kremen protein 1 (Homo sapiens), Q96MU8 (parent)
chain: B1 chain
partner: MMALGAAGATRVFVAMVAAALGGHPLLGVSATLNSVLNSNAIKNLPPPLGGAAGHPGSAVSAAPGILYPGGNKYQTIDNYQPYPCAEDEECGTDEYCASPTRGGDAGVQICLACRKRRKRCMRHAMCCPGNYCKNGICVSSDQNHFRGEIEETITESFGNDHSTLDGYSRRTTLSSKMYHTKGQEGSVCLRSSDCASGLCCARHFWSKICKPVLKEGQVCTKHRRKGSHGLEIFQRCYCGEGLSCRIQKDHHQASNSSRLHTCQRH

Variants of: B1
Details: with lrp6_human LRP6, O75581
Chain of lrp6_human LRP6, O75581 (O75581 whole entry): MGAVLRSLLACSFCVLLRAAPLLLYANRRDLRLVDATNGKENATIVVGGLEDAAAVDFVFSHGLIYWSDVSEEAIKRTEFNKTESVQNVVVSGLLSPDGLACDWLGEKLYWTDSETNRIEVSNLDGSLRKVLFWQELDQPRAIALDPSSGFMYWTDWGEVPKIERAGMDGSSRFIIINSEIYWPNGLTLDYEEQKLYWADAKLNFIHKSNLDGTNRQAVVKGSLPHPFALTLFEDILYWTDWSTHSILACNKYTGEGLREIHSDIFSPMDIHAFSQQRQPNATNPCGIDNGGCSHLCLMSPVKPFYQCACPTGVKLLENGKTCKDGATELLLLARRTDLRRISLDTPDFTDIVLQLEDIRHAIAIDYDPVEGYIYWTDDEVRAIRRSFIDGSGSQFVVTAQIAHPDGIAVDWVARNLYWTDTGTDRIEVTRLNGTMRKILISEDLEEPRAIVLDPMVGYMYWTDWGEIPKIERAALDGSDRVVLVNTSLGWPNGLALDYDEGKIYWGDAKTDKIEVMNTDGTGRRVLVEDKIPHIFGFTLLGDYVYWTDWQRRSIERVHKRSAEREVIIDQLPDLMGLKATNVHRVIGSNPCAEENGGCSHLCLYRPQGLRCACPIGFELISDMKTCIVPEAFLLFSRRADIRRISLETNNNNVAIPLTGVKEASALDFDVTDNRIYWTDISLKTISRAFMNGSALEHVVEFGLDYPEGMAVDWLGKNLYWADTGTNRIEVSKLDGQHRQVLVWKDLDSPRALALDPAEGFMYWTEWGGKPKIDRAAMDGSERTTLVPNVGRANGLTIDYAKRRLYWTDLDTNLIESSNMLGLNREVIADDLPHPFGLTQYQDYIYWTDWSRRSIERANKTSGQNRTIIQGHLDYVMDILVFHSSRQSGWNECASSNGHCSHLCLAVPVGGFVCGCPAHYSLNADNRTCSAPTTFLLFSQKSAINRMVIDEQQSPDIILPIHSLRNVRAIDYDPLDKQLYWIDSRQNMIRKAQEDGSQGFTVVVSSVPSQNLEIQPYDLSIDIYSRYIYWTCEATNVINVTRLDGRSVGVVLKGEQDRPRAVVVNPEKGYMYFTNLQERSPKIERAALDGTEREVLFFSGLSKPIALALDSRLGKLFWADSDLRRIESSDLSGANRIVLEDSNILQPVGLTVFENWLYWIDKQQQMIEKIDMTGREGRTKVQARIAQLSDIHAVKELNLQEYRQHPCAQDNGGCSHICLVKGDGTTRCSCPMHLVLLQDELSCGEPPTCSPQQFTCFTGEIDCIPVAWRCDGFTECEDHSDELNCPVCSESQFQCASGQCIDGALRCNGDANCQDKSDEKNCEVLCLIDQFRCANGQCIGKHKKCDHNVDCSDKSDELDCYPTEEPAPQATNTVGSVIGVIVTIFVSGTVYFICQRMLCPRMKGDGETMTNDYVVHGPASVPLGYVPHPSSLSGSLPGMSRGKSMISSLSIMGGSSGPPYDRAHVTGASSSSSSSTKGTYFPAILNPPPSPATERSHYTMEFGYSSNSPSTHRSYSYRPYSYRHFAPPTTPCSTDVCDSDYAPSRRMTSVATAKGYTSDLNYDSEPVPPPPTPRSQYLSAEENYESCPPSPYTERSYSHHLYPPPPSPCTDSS

Row | Variant | effect of a mutation on the interaction
1 | A311S | disrupting interaction strength

Variants of: B2
Details: with dkk1_human DKK1, O94907

Row | Variant | effect of a mutation on the interaction
2 | D90N | disrupting interaction strength
3 | A311S | disrupting interaction strength
4 | V189N;F191S | disrupting interaction strength
